These results are taken from publication PMC4176181, “Multifaceted role of the Topo IIIα–RMI1-RMI2 complex and DNA2 in the BLM-dependent pathway of DNA break end resection”.

In one series the target is BLM;DNA2-D277A (Homo sapiens;Homo sapiens, UniProt P54132;P51530 1-1417;1-1060, |D277A). Briefly: EMSA; 7.5-15 nM BLM with 10 or 20 nM DNA2-D277A; binding enhanced over BLM alone; no ATP, no Mg2+; EMSA: 35 mM Tris-HCl pH 7.5, 1 mM DTT, 100 ng/μl BSA, 2 mM MgCl2, 100 mM NaCl, 25°C, 20 min, 5 nM DNA ends (Mg2+ and ATP omitted in Figure 3B). The following applies: protein: recombinant;recombinant; copies: 1;1; label: 32P; blunt. In general terms: A gel shift assay detects complexes by their altered migration in electrophoresis.

The target of another series is T1, RMI1-RMI2 (Homo sapiens, UniProt Q9H9A7;Q96E14 1-625;1-147).
T1 sequence 1: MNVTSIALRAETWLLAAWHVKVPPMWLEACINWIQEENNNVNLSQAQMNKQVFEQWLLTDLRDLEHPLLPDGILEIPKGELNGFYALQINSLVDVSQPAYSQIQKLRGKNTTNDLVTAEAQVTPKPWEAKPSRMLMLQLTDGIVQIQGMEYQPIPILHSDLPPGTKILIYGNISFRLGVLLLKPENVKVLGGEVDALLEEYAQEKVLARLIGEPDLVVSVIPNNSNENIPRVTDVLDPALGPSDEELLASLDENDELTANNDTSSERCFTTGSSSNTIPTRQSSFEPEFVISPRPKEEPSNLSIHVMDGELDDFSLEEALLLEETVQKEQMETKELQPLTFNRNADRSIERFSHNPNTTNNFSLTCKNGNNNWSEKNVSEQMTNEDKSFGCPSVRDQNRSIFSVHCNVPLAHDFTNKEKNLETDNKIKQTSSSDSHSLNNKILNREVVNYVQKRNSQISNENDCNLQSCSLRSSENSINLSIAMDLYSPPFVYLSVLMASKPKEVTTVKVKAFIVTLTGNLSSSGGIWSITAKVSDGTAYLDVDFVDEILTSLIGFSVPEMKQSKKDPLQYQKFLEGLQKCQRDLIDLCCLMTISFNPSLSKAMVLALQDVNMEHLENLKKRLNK
T1 sequence 2: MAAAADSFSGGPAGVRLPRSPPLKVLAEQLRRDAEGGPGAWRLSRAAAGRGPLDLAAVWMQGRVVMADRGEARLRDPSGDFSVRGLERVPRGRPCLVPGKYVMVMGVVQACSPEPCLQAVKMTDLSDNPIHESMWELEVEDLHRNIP
Briefly: EMSA; 25-100 nM protein; EMSA: 35 mM Tris-HCl pH 7.5, 1 mM DTT, 100 ng/μl BSA, 2 mM MgCl2, 100 mM NaCl, 25°C, 20 min, 5 nM DNA ends (Mg2+ and ATP omitted in Figure 3B). The following applies: protein: recombinant; copies: 1;1; label: 32P; blunt.

In series [1] the target is T2, Topo IIIα (Homo sapiens, UniProt Q13472 1-1001).
T2 sequence: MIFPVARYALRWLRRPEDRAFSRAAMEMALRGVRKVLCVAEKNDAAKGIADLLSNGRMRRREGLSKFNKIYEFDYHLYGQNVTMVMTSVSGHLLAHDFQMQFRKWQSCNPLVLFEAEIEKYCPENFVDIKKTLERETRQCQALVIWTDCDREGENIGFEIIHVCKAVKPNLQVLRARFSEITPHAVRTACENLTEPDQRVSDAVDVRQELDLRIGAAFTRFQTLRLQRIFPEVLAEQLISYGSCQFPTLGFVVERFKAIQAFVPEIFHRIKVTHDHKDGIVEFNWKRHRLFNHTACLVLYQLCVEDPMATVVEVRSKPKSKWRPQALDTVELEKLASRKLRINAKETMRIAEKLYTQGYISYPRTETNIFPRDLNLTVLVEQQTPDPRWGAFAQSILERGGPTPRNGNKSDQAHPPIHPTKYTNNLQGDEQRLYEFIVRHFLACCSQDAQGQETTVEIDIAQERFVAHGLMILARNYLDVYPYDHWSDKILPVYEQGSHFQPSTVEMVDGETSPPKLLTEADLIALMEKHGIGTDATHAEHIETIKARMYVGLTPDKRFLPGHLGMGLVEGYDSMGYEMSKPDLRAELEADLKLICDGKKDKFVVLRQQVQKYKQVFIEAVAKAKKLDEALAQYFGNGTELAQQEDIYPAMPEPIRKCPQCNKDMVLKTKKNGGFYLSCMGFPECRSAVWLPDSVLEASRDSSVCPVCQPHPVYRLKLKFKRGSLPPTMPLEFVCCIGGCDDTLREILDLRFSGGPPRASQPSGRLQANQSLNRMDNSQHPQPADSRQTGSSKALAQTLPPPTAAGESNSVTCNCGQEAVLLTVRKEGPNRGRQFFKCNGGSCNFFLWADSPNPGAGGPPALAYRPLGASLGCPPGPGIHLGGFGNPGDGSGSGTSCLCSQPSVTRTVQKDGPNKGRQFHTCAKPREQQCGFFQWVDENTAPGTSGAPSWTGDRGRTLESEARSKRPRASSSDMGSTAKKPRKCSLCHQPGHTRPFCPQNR
Briefly: EMSA; 25-100 nM protein; two discrete complexes; EMSA: 35 mM Tris-HCl pH 7.5, 1 mM DTT, 100 ng/μl BSA, 2 mM MgCl2, 100 mM NaCl, 25°C, 20 min, 5 nM DNA ends (Mg2+ and ATP omitted in Figure 3B). The following applies: protein: recombinant; label: 32P; blunt.

Series [2] has as its target T2, Topo IIIα. Briefly: EMSA; 25-100 nM protein; streptavidin on one end; shifted efficiently; EMSA: 35 mM Tris-HCl pH 7.5, 1 mM DTT, 100 ng/μl BSA, 2 mM MgCl2, 100 mM NaCl, 25°C, 20 min, 5 nM DNA ends (Mg2+ and ATP omitted in Figure 3B). Particulars: protein: recombinant; label: 32P; blunt.

BLM;DNA2-D277A, sequence (P54132 whole entry, chain 1 of 2): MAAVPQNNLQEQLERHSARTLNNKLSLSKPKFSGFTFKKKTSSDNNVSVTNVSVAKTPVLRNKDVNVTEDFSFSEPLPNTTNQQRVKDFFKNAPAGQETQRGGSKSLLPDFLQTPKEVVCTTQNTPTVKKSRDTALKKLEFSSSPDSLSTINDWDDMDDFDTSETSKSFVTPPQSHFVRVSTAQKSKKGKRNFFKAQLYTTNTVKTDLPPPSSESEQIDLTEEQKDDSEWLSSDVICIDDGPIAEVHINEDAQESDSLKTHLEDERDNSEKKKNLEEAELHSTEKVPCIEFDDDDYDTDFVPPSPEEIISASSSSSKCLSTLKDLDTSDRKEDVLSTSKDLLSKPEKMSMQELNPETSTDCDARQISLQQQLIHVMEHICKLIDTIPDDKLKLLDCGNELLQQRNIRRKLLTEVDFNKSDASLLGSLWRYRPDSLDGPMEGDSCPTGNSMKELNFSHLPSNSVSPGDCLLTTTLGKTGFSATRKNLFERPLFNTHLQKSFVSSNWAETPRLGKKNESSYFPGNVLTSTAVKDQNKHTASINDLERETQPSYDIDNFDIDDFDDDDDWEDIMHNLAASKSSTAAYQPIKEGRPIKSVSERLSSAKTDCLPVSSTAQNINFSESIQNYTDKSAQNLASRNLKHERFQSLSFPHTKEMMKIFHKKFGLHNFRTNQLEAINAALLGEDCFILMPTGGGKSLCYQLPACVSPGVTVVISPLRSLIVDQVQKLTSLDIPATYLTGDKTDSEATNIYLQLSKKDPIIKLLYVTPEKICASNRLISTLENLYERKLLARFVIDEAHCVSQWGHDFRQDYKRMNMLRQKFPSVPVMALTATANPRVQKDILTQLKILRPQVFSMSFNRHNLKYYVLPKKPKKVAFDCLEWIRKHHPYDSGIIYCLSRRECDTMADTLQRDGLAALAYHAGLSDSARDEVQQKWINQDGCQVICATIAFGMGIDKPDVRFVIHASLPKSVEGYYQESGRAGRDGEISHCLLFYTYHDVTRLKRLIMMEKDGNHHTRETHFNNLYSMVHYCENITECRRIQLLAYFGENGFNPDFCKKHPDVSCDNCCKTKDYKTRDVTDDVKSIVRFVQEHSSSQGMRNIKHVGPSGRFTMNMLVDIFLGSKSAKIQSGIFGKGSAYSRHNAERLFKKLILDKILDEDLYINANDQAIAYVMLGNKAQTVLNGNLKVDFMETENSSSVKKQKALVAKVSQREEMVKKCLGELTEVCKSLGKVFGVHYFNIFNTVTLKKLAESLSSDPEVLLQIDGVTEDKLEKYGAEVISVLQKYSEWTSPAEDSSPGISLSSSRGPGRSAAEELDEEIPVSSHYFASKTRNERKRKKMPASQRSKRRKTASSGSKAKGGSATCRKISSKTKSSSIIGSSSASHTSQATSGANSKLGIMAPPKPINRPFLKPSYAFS
BLM;DNA2-D277A, sequence (P51530 whole entry D277A, chain 2 of 2): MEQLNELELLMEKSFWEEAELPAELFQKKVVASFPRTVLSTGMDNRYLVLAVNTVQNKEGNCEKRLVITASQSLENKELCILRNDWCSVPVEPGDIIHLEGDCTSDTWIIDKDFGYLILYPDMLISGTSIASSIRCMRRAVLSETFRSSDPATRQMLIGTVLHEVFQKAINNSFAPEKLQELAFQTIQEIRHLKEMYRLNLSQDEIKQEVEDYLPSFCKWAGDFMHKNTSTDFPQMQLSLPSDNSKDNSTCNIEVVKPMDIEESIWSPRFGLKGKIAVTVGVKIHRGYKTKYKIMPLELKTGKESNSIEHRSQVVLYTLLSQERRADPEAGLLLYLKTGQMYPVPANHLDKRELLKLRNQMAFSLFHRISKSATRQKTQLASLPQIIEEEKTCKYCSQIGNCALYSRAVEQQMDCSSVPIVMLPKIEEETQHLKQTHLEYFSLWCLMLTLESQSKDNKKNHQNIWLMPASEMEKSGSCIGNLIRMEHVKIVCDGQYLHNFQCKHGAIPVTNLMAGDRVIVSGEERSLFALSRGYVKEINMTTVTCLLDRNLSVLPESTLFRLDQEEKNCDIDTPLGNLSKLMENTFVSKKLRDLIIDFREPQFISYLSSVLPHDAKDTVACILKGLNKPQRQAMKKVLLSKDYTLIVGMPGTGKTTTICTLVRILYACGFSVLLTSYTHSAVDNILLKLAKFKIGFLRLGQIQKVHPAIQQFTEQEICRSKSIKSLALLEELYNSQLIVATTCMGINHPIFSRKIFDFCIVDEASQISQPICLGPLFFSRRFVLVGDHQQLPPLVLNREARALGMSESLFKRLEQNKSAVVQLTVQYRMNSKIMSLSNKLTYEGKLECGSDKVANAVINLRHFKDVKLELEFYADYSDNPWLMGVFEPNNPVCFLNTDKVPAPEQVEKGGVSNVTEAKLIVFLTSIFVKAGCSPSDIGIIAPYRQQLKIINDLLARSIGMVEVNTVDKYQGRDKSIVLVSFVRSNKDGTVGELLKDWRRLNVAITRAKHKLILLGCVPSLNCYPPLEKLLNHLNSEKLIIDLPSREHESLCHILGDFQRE

B1: 80-mer dsDNA (dsDNA)
DNA 1: TTGATAAGAGGTCATTTGAATTCATGGCTTAGAGCTTAATTGCTGAATCTGGTGCTGGGATCCAACATGTTTTAAATATG
DNA 2: CATATTTAAAACATGTTGGATCCCAGCACCAGATTCAGCAATTAAGCTCTAAGCCATGAATTCAAATGACCTCTTATCAA
As for B1, the binding result with BLM;DNA2-D277A is “binds”; with RMI1-RMI2 it was “no binding”; in the series with Topo IIIα [1] it was “binds”.

B2: 80-mer dsDNA, one end blocked by biotin-streptavidin (dsDNA)
DNA 1: TTGATAAGAGGTCATTTGAATTCATGGCTTAGAGCTTAATTGCTGAATCTGGTGCTGGGATCCAACATGTTTTAAATATG
DNA 2: CATATTTAAAACATGTTGGATCCCAGCACCAGATTCAGCAATTAAGCTCTAAGCCATGAATTCAAATGACCTCTTATCAA
modifications: 5' biotin on one strand (PSOL7475 or PSOL6214; which one not stated), streptavidin bound
For B2, the binding result with Topo IIIα [2] was “binds”.
